Assay results published in article PMC8006170.

Substrate: NCC(=O)CCC(=O)O
Assay: PbgS activity assay in lysate of overexpressing cells, Michaelis-Menten
Type: biochemical, Acinetobacter baumannii
Conditions: native wt lysate included as control to subtract basal activity

B1: PbgS(wt) (Acinetobacter baumannii ATCC 19606 = CIP 70.34 = JCM 6841) (protein)
chain: MGLQYSSRLTVMEYPPTYPSVIPNIEIVMTYTFNRPAFPATRMRRIRKNDQLRAMVSETQLTTNHLIYPVFVLPGQNQTQDIPSMPNIQRLSADLLLKKAERLLELGVSKLALFPVTPQEDKSLTAEAAWREDGLVQTTCRLLKKELPEMVLITDGALDPYTTHGQDGIIDETGYVLNDETVECLIKQALSHAEAGAEVIAPSDMMDGRIGAIRQALEANGHIYTNIMAYSAKYASSFYGPFRDAVGSASNLKGGNKYNYQMDFANRAEALHEIALDIQEGADMVIVKPGMPYLDVVREVKDTFGIPTFIYQVSGEYAMLAGAIQNGWLSDSVILESLMCCRRAGADGIWTYFAETAAEKLKEMN
B1 showed a Km of 153 µM.
